In the nanobody polyreactivity screen of Harvey et al. (2022):

test: yeast display, Sf9 membrane polyspecificity reagent, FACS + sequencing; frameworks hold sequencing errors
How it was run: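 A synthetic nanobody library was expressed on Saccharomyces cerevisiae BJ5465 by galactose induction for 36–48 hours. The library was stained for 1 hour at 4 °C with 10% biotinylated, detergent-solubilized Sf9 membrane reagent and enriched with streptavidin microbeads before FACS. Low and high (top ~1%) gates were set on anti-HA fluorescence for expression and streptavidin fluorescence for reagent binding, and each polyreactivity label reflects the gate of origin.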

| Sequence | polyreactivity (PSR sort gate) |
| --- | --- |
| QVQLVESGGGLVQAGGSLRLSCAASGRISSQYAMGWYRQAPGKERELVAAISTSGDRTYYADSVKGRFTISRDNAKNTVYLQMNSLKPEDTAVYYCAKDGPYTYGRDIYEYWGQGTQVTVSS | low polyreactivity |
| QVQLVESGGGLVQAGGSLRLSCAASGRISSSYAMGWYRQAPGKEREFVAGITSIGGRTYYADSVKGRFTISRDNAKNTVYLQMNSLKPEDTAVYYCATTSSWRYGYWGQGTQVTVSS | high polyreactivity |
| QVQLVESGGGLVQAGGSLRLSCAASGRISSVYAMGWYRQAPGKERELVAAINWRVGSTYYADSVKGRFTISRDNAKNTVYLQMNSLKPEDTAVYYCAVDPVYGIIGSRYDYWGQGTQVTVSS | low polyreactivity |
| QVQLVESGGGLVQAGGSLRLSCAASGRISTYTMGWYRQAPGKERELVATISTHASTNYSDSVKGRFTISRDNAKYTVYLQKYSMKPEDNAVFYCATTVPVILYVTPSTYAVVGYEYWGQGTQVTVSS | low polyreactivity |
| QVQLVESGGGLVQAGGSLRLSCAASGRISWVYAKGWYRQPPGKERELVAAITFSGGSTYYADSVKGRFTISSDNEKNTVYLQMNSLKPEDTAVYYCAADVLAIYSHRYYRYDSWGQGTQVTVSS | high polyreactivity |
| QVQLVESGGGLVQAGGSLRLSCAASGRISYYYMGWYRQAPGKERELVAAISWNGGRTYYADSVKGRFTISRDNAKNTVYLQMNSLKPEDTAVYYCAAYTYSFRANHDYWGQGTQVTVSS | high polyreactivity |
| QVQLVESGGGLVQAGGSLRLSCAASGRITQYTMGWYRQAPGKERELVASIRKSGSTHYADSVKGRFTISRDNAKNTVYLQMNSLKPEDTAVYYCAARTYNPLTGYGYWGQGTQVTVSS | high polyreactivity |
| QVQLVESGGGLVQAGGSLRLSCAASGRIVGAYAMGWYRQAPGKERELVAAITSAGSTHYADSVKGRFTISRDNAKNTVYLQMNSLKPEDSAVYYCAADGIARAYVLFYAYDFLYDYWGQGTQVTVSS | low polyreactivity |
| QVQLVESGGGLVQAGGSLRLSCAASGRIVGLYAKGWYRQAPGKERELVATITRRAGSTYYADSVKGRFTISRDYAKNTVYLLMNSLKPEDTAVYYCAASALRFNSRFSHWYNYWGQGTQVTVSS | high polyreactivity |
| QVQLVESGGGLVQAGGSLRLSCAASGRIVKANAMGWYRQAPGKERELVAAIRESGGTTYYADSVKGRFTISRDNATNTVYLQMNSLKPEDTAVYYCAAAYRDTQYNYYYWGQGTQVTVSS | high polyreactivity |
| QVQLVESGGGLVQAGGSLRLSCAASGRIVKYAMGWYRQAPGKERELVAAISGSGGTTYYADSVKGRFTISRDNAKNTVYLQMNSLKPEDTAVYYCAASRPRPPSSRRMDYWGQGTQVTVSS | high polyreactivity |
| QVQLVESGGGLVQAGGSLRLSCAASGRIVKYAMGWYRQAPGKERELVAAISSSGGTTYYADSVKGRFTISRDNAKNTVYLQMISLKPEDTAVYYCAAPGTYTSRGSDYWGQGTQVTVSS | high polyreactivity |
| QVQLVESGGGLVQAGGSLRLSCAASGRIVPYAMGWYRQAPGKERELVARINFNGGSTYYADSVKGRFTISRDNAKNTVYLQMNSLKPEDTAVYDCAARVYRYRYSKYDYWGQGTQVTVSS | high polyreactivity |
| QVQLVESGGGLVQAGGSLRLSCAASGRIVRRYARGWYIQAPGKERELVAAITNNGGNTYYADSVKGRFTISRDNAKNTVYLQMNSLKPEDTAVYYCKAGYYWGQGTQVTVSS | high polyreactivity |
| QVQLVESGGGLVQAGGSLRLSCAASGRIVYSNAMVWYRQAPGKERELVASITRGSRTNYADSVKGRFTISRDNAKHSVYLPMNSLKPEDTAVYYCARRYLLKPGFGRFYYWGQGNQVTVSS | high polyreactivity |
| QVQLVESGGGLVQAGGSLRLSCAASGRIWVNAMGCYRQAPWKESELVAAISTSSASTYYADSVKGRFTISRDNAKNTVYLEMNSLKPEDTAVYYCAARWARQLGSGRRGDYWGQGTQVTVSS | high polyreactivity |
